Data reported in article doi:10.1101/2025.10.16.681758 (bioRxiv, 2025).

How the values were obtained:
[1] = test system: aCcr2 (Saccharolobus islandicus REY15A); assay: EMSA
[2] = test system: aCcr3 (Saccharolobus islandicus REY15A); assay: EMSA
[3] = test system: aCcr1 (Saccharolobus islandicus REY15A); assay: EMSA
SEC = target: the molecule itself; assay: SEC

PcdvA was tested, and the Kd [1] was 245 nM, the Kd [2] was 36 nM and the Kd [3] was 93.5 nM.

B1: SiRe_0131 (natural protein, Saccharolobus islandicus REY15A, UniProt F0NG80 1-74, looked up)
chain: MEKIVKVNDTTYILEDERSVVITFKLEENILSMVDEIVKKLGYDYRSDFIRDAIEKYINYLKSSSNNSKMNINE
B1 was tested, and the “stoichiometry N” value (SEC) was 2.

B2: aCcr2 (natural protein, Saccharolobus islandicus REY15A, UniProt F0NEU4 1-57, looked up)
chain: MVRVITFKAEEELLVKLDLFALNSRMSRSEIIRMAIEKYLEEAAGGIRTRDRRLSRQ
For B2, the “stoichiometry N” value (SEC) was 2.

B3: aCcr3 (natural protein, Saccharolobus islandicus REY15A, UniProt F0NFD7 1-50, looked up)
chain: MKIITVKLPEQFLEAIDELVNTGRYGSRSEVIRAAIGDFIRKELWVTTEE
In the case of B3, the “stoichiometry N” value (SEC) is reported as 2.

B4: SiRe_1373 (natural protein, Saccharolobus islandicus REY15A, UniProt F0NI75 1-45, looked up)
chain: MRKVVSVRLKEDVLRDVDIYTRKLGLNSRTEFIKQAIEFYIKSKS
With B4 the “stoichiometry N” value (SEC) was 2.

B5: aCcr1 (natural protein, Saccharolobus islandicus REY15A, UniProt F0NBE5 1-58, looked up)
chain: MRVVTFKVEEDLLELLDRYAIKYGLNRSEAIRKAIEKMVRDELSKERVPVARVEKIKL
In the case of B5, the “stoichiometry N” value (SEC) is reported as 2.
